Results published in patent US20250277020A1 (Boehringer Ingelheim, published 2025).

T1: Full-length human CTGF (human, UniProt P29279 27-349)
T1 construct: Corresponds to NCBI NP_001892.1 with the signal peptide omitted; purchased from R&D Systems; also called hCTGF full length; full length CTGF
T1 sequence: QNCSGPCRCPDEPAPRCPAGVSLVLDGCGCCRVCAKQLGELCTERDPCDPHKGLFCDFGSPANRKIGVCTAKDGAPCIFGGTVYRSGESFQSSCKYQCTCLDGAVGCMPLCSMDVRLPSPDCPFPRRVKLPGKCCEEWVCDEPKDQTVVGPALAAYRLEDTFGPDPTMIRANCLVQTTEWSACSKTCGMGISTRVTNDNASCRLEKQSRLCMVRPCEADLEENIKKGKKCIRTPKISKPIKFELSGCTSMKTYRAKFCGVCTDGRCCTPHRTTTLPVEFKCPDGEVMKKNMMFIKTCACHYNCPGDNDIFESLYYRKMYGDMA


Target: T1, Full-length human CTGF
Assay: SPR, full length CTGF

Row | Binder | Kd
1 | A85 (antibody, human IgG1, kappa, L234A L235A) light: VVMTQTPLSLPVSLGDQASISCRSSQSIVHYNEKTYLEWYLQKPGQSPQLLIYKVSNRFSGVPDRFSGSGSGTDFTLKISRVEAEDLGVYYCFQGSHFPLTFGQGTKLEIKRTVAAPSVFIFPPSDEQLKSGTASVVCLLNNFYPREAKVQWKVDNALQSGNSQESVTEQDSKDSTYSLSSTLTLSKADYEKHKVYACEVTHQGLSSPVTKSFNRGEC heavy: not shown | 0.28 nM
2 | A90 (antibody, human IgG1, kappa, L234A L235A, V domains shown) VH: EVQLVESGGGLVQPGGSLRLSCAASGFTFSDYYMAWVRQAPGKGLEWVANINYYGSRTDLLESLKSRFTISRDNAKNSVYLQMNSLRAEDTAVYYCARDTSRGSYFDVWGAGTTVTVSS VL: VVMTQTPLSLSVSLGDQASISCKSSQSIVHYNGNTYLEWYLQKPGQSPQLLIYKVSSRFSGVPDRFSGSGSGTDFTLKISRVEAEDLGVYYCFQGSHFPLTFGQGTKLEIKR | 0.17 nM
3 | A88 (antibody, human IgG1, kappa, L234A L235A) light: VVMTQTPLSLPVSLGDQASISCRSSQSIVHYNEKTYLEWYLQKPGQSPQLLIYKVSNRFSGVPDRFSGSGSGTDFTLKISRVEAEDLGVYYCFQGSHFPLTFGQGTKLEIKRTVAAPSVFIFPPSDEQLKSGTASVVCLLNNFYPREAKVQWKVDNALQSGNSQESVTEQDSKDSTYSLSSTLTLSKADYEKHKVYACEVTHQGLSSPVTKSFNRGEC heavy: not shown | 0.32 nM
4 | A92 (antibody, human IgG1, kappa, L234A L235A, V domains shown) VH: EVQLVESGGGLVQPGGSLRLSCAASGFTFSDYYMAWVRQAPGKGLEWVANINYYGSRTDLLASLKSRFTISRDNAKNSVYLQMNSLRAEDTAVYYCARDTSRGSYFDVWGAGTTVTVSS VL: VVMTQTPLSLSVSLGDQASISCKSSQSIVHYNGNTYLEWYLQKPGQSPQLLIYKVSSRFSGVPDRFSGSGSGTDFTLKISRVEAEDLGVYYCFQGSHFPLTFGQGTKLEIKR | 0.16 nM
5 | A91 (antibody, human IgG1, kappa, L234A L235A, V domains shown) VH: EVQLVESGGGLVQPGGSLRLSCAASGFTFSDYYMAWVRQAPGKGLEWVANINYEGSRTDLLASLKSRFTISRDNAKNSVYLQMNSLRAEDTAVYYCARDTSRGSYFDVWGAGTTVTVSS VL: VVMTQTPLSLSVSLGDQASISCKSSQSIVHYNGNTYLEWYLQKPGQSPQLLIYKVSSRFSGVPDRFSGSGSGTDFTLKISRVEAEDLGVYYCFQGSHFPLTFGQGTKLEIKR | 0.13 nM
6 | A89 (antibody, human IgG1, kappa, L234A L235A, V domains shown) VH: EVQLVESGGGLVQPGGSLRLSCAASGFTFSDYYMAWVRQAPGKGLEWVANINYEGSRTDLLESLKSRFTISRDNAKNSVYLQMNSLRAEDTAVYYCARDTSRGSYFDVWGAGTTVTVSS VL: VVMTQTPLSLSVSLGDQASISCKSSQSIVHYNGNTYLEWYLQKPGQSPQLLIYKVSSRFSGVPDRFSGSGSGTDFTLKISRVEAEDLGVYYCFQGSHFPLTFGQGTKLEIKR | 0.16 nM
7 | A87 (antibody, human IgG1, kappa, L234A L235A, V domains shown) VH: EVQLVESGGGLVQPGGSLRLSCAASGFTFSDYYMAWVRQAPGKGLEWVANINYDGSRTDLLESLKSRFTISRDNAKNSVYLQMNSLRAEDTAVYYCARDTSRGSYFDVWGAGTTVTVSS VL: VVMTQTPLSLPVSLGDQASISCRSSQSIVHYNEKTYLEWYLQKPGQSPQLLIYKVSNRFSGVPDRFSGSGSGTDFTLKISRVEAEDLGVYYCFQGSHFPLTFGQGTKLEIKR | 0.34 nM
8 | A93 (antibody, human IgG1, kappa, L234A L235A) light: VVMTQTPLSLSVSLGDQASISCKSSQSIVHYNGNTYLEWYLQKPGQSPQLLIYKVSSRFSGVPDRFSGSGSGTDFTLKISRVEAEDLGVYYCFQGSHFPLTFGQGTKLEIKRTVAAPSVFIFPPSDEQLKSGTASVVCLLNNFYPREAKVQWKVDNALQSGNSQESVTEQDSKDSTYSLSSTLTLSKADYEKHKVYACEVTHQGLSSPVTKSFNRGEC heavy: not shown | 0.18 nM
9 | A94 (antibody, human IgG1, kappa, L234A L235A, V domains shown) VH: EVQLVESGGGLVQPGGSLRLSCAASGFTFSDYYMAWVRQAPGKGLEWVANINYEGSRTDLLDSLKSRFTISRDNAKNSVYLQMNSLRAEDTAVYYCARDTSRGSYFDVWGAGTTVTVSS VL: VVMTQTPLSLSVSLGDQASISCKSSQSIVHYNGNTYLEWYLQKPGQSPQLLIYKVSSRFSGVPDRFSGSGSGTDFTLKISRVEAEDLGVYYCFQGSHFPLTFGQGTKLEIKR | 0.19 nM

Next, values leading:

Row | Kd | Binder
10 | 0.12 nM | A98 (antibody, human IgG1, kappa, L234A L235A) light: VVMTQTPLSLSVSLGDQASISCKSSQSIVHYNGNTYLEWYLQKPGQSPQLLIYKVSSRASGVPDRFSGSGSGTDFTLKISRVEAEDLGVYYCFQGSHFPLTFGQGTKLEIKRTVAAPSVFIFPPSDEQLKSGTASVVCLLNNFYPREAKVQWKVDNALQSGNSQESVTEQDSKDSTYSLSSTLTLSKADYEKHKVYACEVTHQGLSSPVTKSFNRGEC heavy: not shown
11 | 0.19 nM | A95 (antibody, human IgG1, kappa, L234A L235A, V domains shown) VH: EVQLVESGGGLVQPGGSLRLSCAASGFTFSDYYMAWVRQAPGKGLEWVANINYDGSRTDLLESLKSRFTISRDNAKNSVYLQMNSLRAEDTAVYYCARDTSRGSYFDVWGAGTTVTVSS VL: VVMTQTPLSLSVSLGDQASISCKSSQSIVHYNGNTYLEWYLQKPGQSPQLLIYKVSSRFSGVPDRFSGSGSGTDFTLKISRVEAEDLGVYYCFQGSHFPLTFGQGTKLEIKR
12 | 0.17 nM | A104 (antibody, human IgG1, kappa, L234A L235A) light: VVMTQTPLSLSVSLGDQASISCKSSQSIVHYNGNTYLEWYLQKPGQSPQLLIYKVSSRASGVPDRFSGSGSGTDFTLKISRVEAEDLGVYYCFQGSHFPLTFGQGTKLEIKRTVAAPSVFIFPPSDEQLKSGTASVVCLLNNFYPREAKVQWKVDNALQSGNSQESVTEQDSKDSTYSLSSTLTLSKADYEKHKVYACEVTHQGLSSPVTKSFNRGEC heavy: not shown
13 | 0.15 nM | A102 (antibody, human IgG1, kappa, L234A L235A) light: VVMTQTPLSLSVSLGDQASISCKSSQSIVHYNGNTYLEWYLQKPGQSPQLLIYKVSSRASGVPDRFSGSGSGTDFTLKISRVEAEDLGVYYCFQGSHFPLTFGQGTKLEIKRTVAAPSVFIFPPSDEQLKSGTASVVCLLNNFYPREAKVQWKVDNALQSGNSQESVTEQDSKDSTYSLSSTLTLSKADYEKHKVYACEVTHQGLSSPVTKSFNRGEC heavy: not shown
14 | 0.24 nM | A121 (antibody, human IgG1, kappa, L234A L235A, V domains shown) VH: EVQLVESGGGLVQPGGSLRLSCAASGFTFSDYYMAWVRQAPGKGLEWVANINYEGSRTDLLESLKSRFTISRDNAKNSVYLQMNSLRAEDTAVYYCARDTSRGSYFDVWGAGTTVTVSS VL: VVMTQTPLSLPVSLGDQASISCRSSQSIVHYNGNTYLEWYLQKPGQSPQLLIYKVSNRDSGVPDRFSGSGSGTDFTLKISRVEAEDLGVYYCFQGSHFPLTFGQGTKLEIKR
15 | 0.13 nM | A100 (antibody, human IgG1, kappa, L234A L235A) light: VVMTQTPLSLSVSLGDQASISCKSSQSIVHYNGNTYLEWYLQKPGQSPQLLIYKVSSRASGVPDRFSGSGSGTDFTLKISRVEAEDLGVYYCFQGSHFPLTFGQGTKLEIKRTVAAPSVFIFPPSDEQLKSGTASVVCLLNNFYPREAKVQWKVDNALQSGNSQESVTEQDSKDSTYSLSSTLTLSKADYEKHKVYACEVTHQGLSSPVTKSFNRGEC heavy: not shown
16 | 0.19 nM | A96 (antibody, human IgG1, kappa, L234A L235A) light: VVMTQTPLSLSVSLGDQASISCKSSQSIVHYNGNTYLEWYLQKPGQSPQLLIYKVSSRFSGVPDRFSGSGSGTDFTLKISRVEAEDLGVYYCFQGSHFPLTFGQGTKLEIKRTVAAPSVFIFPPSDEQLKSGTASVVCLLNNFYPREAKVQWKVDNALQSGNSQESVTEQDSKDSTYSLSSTLTLSKADYEKHKVYACEVTHQGLSSPVTKSFNRGEC heavy: not shown
17 | 0.21 nM | A123 (antibody, human IgG1, kappa, L234A L235A, V domains shown) VH: EVQLVESGGGLVQPGGSLRLSCAASGFTFSDYYMAWVRQAPGKGLEWVANINYEGSRTDLLASLKSRFTISRDNAKNSVYLQMNSLRAEDTAVYYCARDTSRGSYFDVWGAGTTVTVSS VL: VVMTQTPLSLPVSLGDQASISCRSSQSIVHYNGNTYLEWYLQKPGQSPQLLIYKVSNRDSGVPDRFSGSGSGTDFTLKISRVEAEDLGVYYCFQGSHFPLTFGQGTKLEIKR
18 | 0.17 nM | A101 (antibody, human IgG1, kappa, L234A L235A) light: VVMTQTPLSLSVSLGDQASISCKSSQSIVHYNGNTYLEWYLQKPGQSPQLLIYKVSSRASGVPDRFSGSGSGTDFTLKISRVEAEDLGVYYCFQGSHFPLTFGQGTKLEIKRTVAAPSVFIFPPSDEQLKSGTASVVCLLNNFYPREAKVQWKVDNALQSGNSQESVTEQDSKDSTYSLSSTLTLSKADYEKHKVYACEVTHQGLSSPVTKSFNRGEC heavy: not shown
19 | 0.23 nM | A122 (antibody, human IgG1, kappa, L234A L235A, V domains shown) VH: EVQLVESGGGLVQPGGSLRLSCAASGFTFSDYYMAWVRQAPGKGLEWVANINYYGSRTDLLESLKSRFTISRDNAKNSVYLQMNSLRAEDTAVYYCARDTSRGSYFDVWGAGTTVTVSS VL: VVMTQTPLSLPVSLGDQASISCRSSQSIVHYNGNTYLEWYLQKPGQSPQLLIYKVSNRDSGVPDRFSGSGSGTDFTLKISRVEAEDLGVYYCFQGSHFPLTFGQGTKLEIKR
20 | 0.15 nM | A103 (antibody, human IgG1, kappa, L234A L235A) light: VVMTQTPLSLSVSLGDQASISCKSSQSIVHYNGNTYLEWYLQKPGQSPQLLIYKVSSRASGVPDRFSGSGSGTDFTLKISRVEAEDLGVYYCFQGSHFPLTFGQGTKLEIKRTVAAPSVFIFPPSDEQLKSGTASVVCLLNNFYPREAKVQWKVDNALQSGNSQESVTEQDSKDSTYSLSSTLTLSKADYEKHKVYACEVTHQGLSSPVTKSFNRGEC heavy: not shown
21 | 0.11 nM | A99 (antibody, human IgG1, kappa, L234A L235A) light: VVMTQTPLSLSVSLGDQASISCKSSQSIVHYNGNTYLEWYLQKPGQSPQLLIYKVSSRASGVPDRFSGSGSGTDFTLKISRVEAEDLGVYYCFQGSHFPLTFGQGTKLEIKRTVAAPSVFIFPPSDEQLKSGTASVVCLLNNFYPREAKVQWKVDNALQSGNSQESVTEQDSKDSTYSLSSTLTLSKADYEKHKVYACEVTHQGLSSPVTKSFNRGEC heavy: not shown
